For two molecules, Kd, koff and kon results are on record in publication PMC7094256 (Febs Letters, 2005).

The labels stand for the following.
B1: GST-tagged human heterogeneous nuclear ribonucleoprotein A1 (natural protein)
chain: MSKSESPKEPEQLRKLFIGGLSFETTDESLRSHFEQWGTLTDCVVMRDPNTKRSRGFGFVTYATVEEVDAAMNARPHKVDGRVVEPKRAVSREDSQRPGAHLTVKKIFVGGIKEDTEEHHLRDYFEQYGKIEVIEIMTDRGSGKKRGFAFVTFDDHDSVDKIVIQKYHTVNGHNCEVRKALSKQEMASASSSQRGRSGSGNFGGGRGGGFGGNDNFGRGGNFSGRGGFGGSRGGGGYGGSGDGYNGFGNDGSNFGGGGSYNDFGNYNNQSSNFGPMKGGNFGGRSSGPYGGGGQYFAKPRNQGGYGGSSSSSSYGSGRRF
B2: synthesized peptide ASSRSSSRSRGNSRN (aa 183–197 of SARS_N) (peptide)
peptide: ASSRSSSRSRGNSRN

Experiment [1] deals with His-tagged nucleocapsid protein of SARS coronavirus (SARS coronavirus, UniProt P59595 1-422). Description: SPR. A general note: In SPR one partner is held on a chip, and binding of the other changes the refractive index at the surface.
His-tagged nucleocapsid protein of SARS coronavirus, sequence (P59595 whole entry): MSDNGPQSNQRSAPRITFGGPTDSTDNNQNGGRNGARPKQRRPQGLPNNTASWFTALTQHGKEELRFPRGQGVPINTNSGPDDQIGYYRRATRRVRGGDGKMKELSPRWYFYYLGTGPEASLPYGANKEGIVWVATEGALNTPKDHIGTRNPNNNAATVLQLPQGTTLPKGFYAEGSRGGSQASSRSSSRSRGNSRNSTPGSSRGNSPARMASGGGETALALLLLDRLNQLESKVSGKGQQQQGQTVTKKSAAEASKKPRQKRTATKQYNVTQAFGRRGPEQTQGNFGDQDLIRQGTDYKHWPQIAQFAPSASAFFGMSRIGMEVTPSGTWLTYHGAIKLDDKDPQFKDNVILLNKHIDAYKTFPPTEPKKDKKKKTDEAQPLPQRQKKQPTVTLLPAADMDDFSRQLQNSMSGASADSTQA
Experiment [2] has as its target B1. Nature of the experiment: SPR.

One may read the Kd as the equilibrium constant for the complex coming apart. The koff is the first-order rate constant of dissociation. Higher therefore signals fast dissociation. The kon is the second-order rate constant of association. Read a high kon as faster complex formation. Take B1: in experiment [1], binding was characterised by a dissociation constant (Kd) of 350 ± 20 nM, the koff was 0.00206 s⁻¹ and the kon was 5830 M⁻¹ s⁻¹.

With B2, in experiment [2], binding was characterised by a dissociation constant (Kd) of 148 ± 12 µM.
